Reference: article PMC3303177

How the values were obtained:
GST-AP-2β = GST-AP-2β (UniProt Q92481 1-460); assay: EMSA
His-GAS41 = His-GAS41 (UniProt O95619 1-227); assay: EMSA
Chain of His-GAS41 (O95619 whole entry): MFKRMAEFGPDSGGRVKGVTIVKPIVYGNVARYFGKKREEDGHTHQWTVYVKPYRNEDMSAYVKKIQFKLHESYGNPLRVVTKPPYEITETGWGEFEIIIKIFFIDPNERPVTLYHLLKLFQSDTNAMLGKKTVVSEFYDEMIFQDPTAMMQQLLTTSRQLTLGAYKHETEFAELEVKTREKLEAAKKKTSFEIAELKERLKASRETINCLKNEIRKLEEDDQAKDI

Chain of GST-AP-2β (Q92481 whole entry): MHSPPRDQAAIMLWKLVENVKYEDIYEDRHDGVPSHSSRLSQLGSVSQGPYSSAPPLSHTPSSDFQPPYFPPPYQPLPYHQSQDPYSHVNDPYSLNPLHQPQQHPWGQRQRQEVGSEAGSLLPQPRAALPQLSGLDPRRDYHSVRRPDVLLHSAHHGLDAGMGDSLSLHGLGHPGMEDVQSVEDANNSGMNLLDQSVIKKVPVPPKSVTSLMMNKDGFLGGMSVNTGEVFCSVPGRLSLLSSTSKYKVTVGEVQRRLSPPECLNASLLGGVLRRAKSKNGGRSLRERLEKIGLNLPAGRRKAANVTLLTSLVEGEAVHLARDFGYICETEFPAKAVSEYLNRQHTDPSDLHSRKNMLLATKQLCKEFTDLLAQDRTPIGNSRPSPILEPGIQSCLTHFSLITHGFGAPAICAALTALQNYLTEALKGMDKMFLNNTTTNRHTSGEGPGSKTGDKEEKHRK

B1: hMT AP-2 consensus probe (dsDNA)
DNA 1: TGACCGCCCGCGGCCCGTG
DNA 2: CACGGGCCGCGGGCGCTCA
binding result (GST-AP-2β): binds
binding result (His-GAS41): no binding
